Laboratory results: publication PMC4501837, “Mutational Dissection of Telomeric DNA Binding Requirements of G4 Resolvase 1 Shows that G4-Structure and Certain 3’-Tail Sequences Are Sufficient for Tight and Complete Binding”

Tests used:
G4 Resolvase 1 (G4R1) [1] = molecular target: T1, G4 Resolvase 1 (G4R1) (UniProt Q9H2U1 1-1008); experiment: EMSA; K+; did not significantly bind; 50 mM KCl, 10 mM NaCl (or 50 mM KCl or 50 mM NaCl alone), 3 mM MgCl2, 50 mM Tris acetate pH 7.8, 70 mM glycine, 0.012% bovine lactalbumin, 10% glycerol, 10 mM EDTA; 37 C, 0.5 or 24 h; 1 pM DNA, 10-500 pM G4R1; gel at 7 C; conditions: protein: recombinant; label: 5'-32P; unimolecular G4, 3+1 in K+, at most 2 nt 3' tail
T1 sequence: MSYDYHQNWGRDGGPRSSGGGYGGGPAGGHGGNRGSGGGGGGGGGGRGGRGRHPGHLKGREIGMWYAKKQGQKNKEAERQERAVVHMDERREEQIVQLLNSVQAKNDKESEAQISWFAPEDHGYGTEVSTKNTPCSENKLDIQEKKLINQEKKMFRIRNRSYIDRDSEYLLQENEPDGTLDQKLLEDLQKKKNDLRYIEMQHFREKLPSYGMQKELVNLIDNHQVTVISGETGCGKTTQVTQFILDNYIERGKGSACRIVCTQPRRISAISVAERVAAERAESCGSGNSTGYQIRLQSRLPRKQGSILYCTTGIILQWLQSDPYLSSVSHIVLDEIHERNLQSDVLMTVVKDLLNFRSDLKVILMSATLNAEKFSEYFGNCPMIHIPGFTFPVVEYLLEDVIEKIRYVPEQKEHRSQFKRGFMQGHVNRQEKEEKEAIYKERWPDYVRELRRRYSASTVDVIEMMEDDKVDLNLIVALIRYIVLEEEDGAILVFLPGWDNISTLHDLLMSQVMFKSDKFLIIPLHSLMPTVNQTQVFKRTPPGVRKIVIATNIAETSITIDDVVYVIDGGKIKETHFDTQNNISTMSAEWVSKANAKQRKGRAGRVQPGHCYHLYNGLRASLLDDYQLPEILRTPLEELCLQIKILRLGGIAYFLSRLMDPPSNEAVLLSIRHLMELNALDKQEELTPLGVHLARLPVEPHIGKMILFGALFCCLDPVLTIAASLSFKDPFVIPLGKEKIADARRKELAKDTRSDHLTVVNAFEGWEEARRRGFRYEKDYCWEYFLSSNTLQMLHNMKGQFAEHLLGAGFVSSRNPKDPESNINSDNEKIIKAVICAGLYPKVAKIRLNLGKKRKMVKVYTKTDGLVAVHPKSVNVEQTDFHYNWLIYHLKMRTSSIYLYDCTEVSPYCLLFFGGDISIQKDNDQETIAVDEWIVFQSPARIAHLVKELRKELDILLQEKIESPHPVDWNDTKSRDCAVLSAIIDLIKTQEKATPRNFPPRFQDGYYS

G4 Resolvase 1 (G4R1) [2] = molecular target: T1, G4 Resolvase 1 (G4R1); experiment: EMSA; 50 mM KCl, K+-induced 3+1 G4, 24 h; apparent Kd, n=3; 50 mM KCl, 10 mM NaCl (or 50 mM KCl or 50 mM NaCl alone), 3 mM MgCl2, 50 mM Tris acetate pH 7.8, 70 mM glycine, 0.012% bovine lactalbumin, 10% glycerol, 10 mM EDTA; 37 C, 0.5 or 24 h; 1 pM DNA, 10-500 pM G4R1; gel at 7 C; conditions: protein: recombinant; label: 5'-32P; unimolecular G4; 3+1 in K+, 2+2 basket in Na+
G4 Resolvase 1 (G4R1) [3] = molecular target: T1, G4 Resolvase 1 (G4R1); experiment: EMSA; K+; significant binding restored; 50 mM KCl, 10 mM NaCl (or 50 mM KCl or 50 mM NaCl alone), 3 mM MgCl2, 50 mM Tris acetate pH 7.8, 70 mM glycine, 0.012% bovine lactalbumin, 10% glycerol, 10 mM EDTA; 37 C, 0.5 or 24 h; 1 pM DNA, 10-500 pM G4R1; gel at 7 C; conditions: protein: recombinant; label: 5'-32P; unimolecular G4, two tetrads expected
G4 Resolvase 1 (G4R1) [4] = molecular target: T1, G4 Resolvase 1 (G4R1); experiment: EMSA; K+; negligible binding; 50 mM KCl, 10 mM NaCl (or 50 mM KCl or 50 mM NaCl alone), 3 mM MgCl2, 50 mM Tris acetate pH 7.8, 70 mM glycine, 0.012% bovine lactalbumin, 10% glycerol, 10 mM EDTA; 37 C, 0.5 or 24 h; 1 pM DNA, 10-500 pM G4R1; gel at 7 C; conditions: protein: recombinant; label: 5'-32P; G4 ablated (CD)
G4 Resolvase 1 (G4R1) [5] = molecular target: T1, G4 Resolvase 1 (G4R1); experiment: EMSA; K+; complete binding restored; 50 mM KCl, 10 mM NaCl (or 50 mM KCl or 50 mM NaCl alone), 3 mM MgCl2, 50 mM Tris acetate pH 7.8, 70 mM glycine, 0.012% bovine lactalbumin, 10% glycerol, 10 mM EDTA; 37 C, 0.5 or 24 h; 1 pM DNA, 10-500 pM G4R1; gel at 7 C; conditions: protein: recombinant; label: 5'-32P; unimolecular G4, two tetrads expected
G4 Resolvase 1 (G4R1) [6] = molecular target: T1, G4 Resolvase 1 (G4R1); experiment: EMSA; K+; similar to Tel33; 50 mM KCl, 10 mM NaCl (or 50 mM KCl or 50 mM NaCl alone), 3 mM MgCl2, 50 mM Tris acetate pH 7.8, 70 mM glycine, 0.012% bovine lactalbumin, 10% glycerol, 10 mM EDTA; 37 C, 0.5 or 24 h; 1 pM DNA, 10-500 pM G4R1; gel at 7 C; conditions: protein: recombinant, label: 5'-32P
G4 Resolvase 1 (G4R1) [7] = molecular target: T1, G4 Resolvase 1 (G4R1); experiment: EMSA; K+; 50 mM KCl, 10 mM NaCl (or 50 mM KCl or 50 mM NaCl alone), 3 mM MgCl2, 50 mM Tris acetate pH 7.8, 70 mM glycine, 0.012% bovine lactalbumin, 10% glycerol, 10 mM EDTA; 37 C, 0.5 or 24 h; 1 pM DNA, 10-500 pM G4R1; gel at 7 C; conditions: protein: recombinant, label: 5'-32P, unimolecular G4, 3+1 in K+
[8] = unimolecular 5' G4 with about 11 nt 3' tail

Binder: TTAGGGTTAGGGTTAGGGTTAGGGTT (structured_DNA) [Tel26]
- binding result (G4 Resolvase 1 (G4R1) [1]): no binding

Binder: TTAGGGTTAGGGTTAGGGTTAGGGTTAGGGTTA (structured_DNA) [Tel33]
- Kd (G4 Resolvase 1 (G4R1) [2]): 0.01 ± 0.0019 nM

Binder: TTGGAGTTAGGGTTAGGGTTAGGGTTAGAGTTA (structured_DNA) [Tel33mut5-mutA-pos3G]
- binding result (G4 Resolvase 1 (G4R1) [3]): binds

Binder: TTAGAGTTAGGGTTAGGGTTAGGGTTAGAGTTA (ssDNA) [Tel33mut5-mutA]
- binding result (G4 Resolvase 1 (G4R1) [4]): no binding

Binder: TTAGAGGTAGGGTTAGGGTTAGGGTTAGAGTTA (structured_DNA) [Tel33mut5-mutA-pos7G]
- binding result (G4 Resolvase 1 (G4R1) [5]): binds

Binder: TTAGGGTTAGGGTTAGGGTTAGGGTTAGAGTTA (structured_DNA) [Tel33mut5]
- binding result (G4 Resolvase 1 (G4R1) [6]; unimolecular 5' G4 with 3' tail about 11 nt): binds

Binder: AGGGTTAGGGTTAGGGTTAGGG (structured_DNA) [Tel22]
- binding result (G4 Resolvase 1 (G4R1) [7]; no 3' tail): no binding

Binder: AGGGTTAGGGTTAGGGTTAGGGTTAGAATTTTT (structured_DNA) [Tel22-3'polyT-mutAGAA]
- binding result (G4 Resolvase 1 (G4R1) [6]; [8]): binds

Binder: AGGGTTAGGGTTAGGGTTAGGGTTAAGATTTTT (structured_DNA) [Tel22-3'polyT-mutAAGA]
- binding result (G4 Resolvase 1 (G4R1) [6]; [8]): binds

Binder: GGTTAGGGTTAGGGTTAGGGTTAGGGTTAG (structured_DNA) [Tel30]
- binding result (G4 Resolvase 1 (G4R1) [7]): binds
